For the test, the target named is T1, BAKΔTM (human, UniProt Q16611 1-186).
T1 chain: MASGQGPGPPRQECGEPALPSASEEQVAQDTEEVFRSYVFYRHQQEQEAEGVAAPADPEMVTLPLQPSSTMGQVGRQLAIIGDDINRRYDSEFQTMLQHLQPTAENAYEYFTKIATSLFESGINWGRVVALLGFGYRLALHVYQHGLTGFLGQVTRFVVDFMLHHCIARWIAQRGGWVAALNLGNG
The experiment in a line: SPR. In general terms: Surface plasmon resonance follows binding to a sensor surface in real time, without labels.

This note sets out measurements from article PMC7335050 (2020).

B1: BAD BH3 peptide (peptide)
chain: NLWAAQRYGRELRRMSDEFVDSFKK
As for B1, the Kd is above 10 µM.

B2: BIK BH3 peptide (peptide)
chain: MEGSDALALRLACIGDEMDVSLRAPR
B2 registered a Kd above 10 µM.

What is called Kd is a measure of binding affinity in units of concentration. Higher therefore signals a looser complex.
